Patent US20240293499A1

How the values were obtained:
[1] = biological target: T1, murine VISTA on mouse splenocytes (macrophages, neutrophils, CD4+ T cells) (mouse) (UniProt Q9D659); assay: cell-based or functional assay
T1 sequence (looked up): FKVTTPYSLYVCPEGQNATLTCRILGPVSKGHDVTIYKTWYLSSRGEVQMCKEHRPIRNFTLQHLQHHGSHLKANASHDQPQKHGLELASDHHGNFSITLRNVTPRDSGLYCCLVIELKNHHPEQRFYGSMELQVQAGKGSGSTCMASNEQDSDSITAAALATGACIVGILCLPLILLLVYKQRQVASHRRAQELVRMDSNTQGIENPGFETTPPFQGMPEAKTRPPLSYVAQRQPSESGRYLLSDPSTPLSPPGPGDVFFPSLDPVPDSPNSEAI

[2] = biological target: hVISTA-COMP-his, pentameric form comprising the extracellular IgV domain of human VISTA (human) (UniProt Q9H7M9); assay: SPR (BIAcore T200), single-cycle kinetics; hVISTA-COMP-his captured on anti-His chip, mAb as analyte; 1:1 Langmuir fit
[3] = biological target: T2, mVISTA-COMP-his, pentameric form comprising the extracellular IgV domain of murine VISTA (mouse) (UniProt Q9D659); assay: SPR (BIAcore T200), single-cycle kinetics; mVISTA-COMP-his captured on anti-His chip, mAb as analyte; 1:1 Langmuir fit
T2 sequence (Q9D659 whole entry, looked up): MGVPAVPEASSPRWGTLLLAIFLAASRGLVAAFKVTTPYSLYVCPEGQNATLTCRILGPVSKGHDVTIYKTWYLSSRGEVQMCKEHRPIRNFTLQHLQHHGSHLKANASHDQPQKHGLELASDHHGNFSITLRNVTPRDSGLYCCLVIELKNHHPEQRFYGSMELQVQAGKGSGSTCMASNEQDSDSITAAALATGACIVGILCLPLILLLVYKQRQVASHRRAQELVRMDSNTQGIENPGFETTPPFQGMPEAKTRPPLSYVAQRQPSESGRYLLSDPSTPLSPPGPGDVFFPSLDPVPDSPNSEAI

[4] = biological target: hVISTA-COMP-his, pentameric form comprising the extracellular IgV domain of human VISTA (human) (UniProt Q9H7M9); assay: SPR (BIAcore T200), single-cycle kinetics, hVISTA-COMP-his captured on anti-His chip, mAb injected at 20, 40, 80, 160, 320 nM, 1:1 fit
[5] = biological target: T2, mVISTA-COMP-his, pentameric form comprising the extracellular IgV domain of murine VISTA (mouse); assay: SPR (BIAcore T200), single-cycle kinetics, mVISTA-COMP-his captured on anti-His chip, mAb injected at 20, 40, 80, 160, 320 nM, 1:1 fit

hVISTA-COMP-his, pentameric form comprising the extracellular IgV domain of human VISTA (human), sequence (Q9H7M9 33-194): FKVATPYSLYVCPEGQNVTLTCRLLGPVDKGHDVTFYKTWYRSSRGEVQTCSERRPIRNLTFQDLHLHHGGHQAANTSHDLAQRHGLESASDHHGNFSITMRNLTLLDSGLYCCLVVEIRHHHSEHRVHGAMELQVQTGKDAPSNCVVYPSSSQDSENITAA

- reduction of proliferation of ConA-stimulated CD4+ T cells, mouse splenocytes [1]: 4%
- Kd [2]: 840 nM
- Kd [3]: 3 nM
- Kd [4]: 838 nM
- koff [4]: 0.000331 s⁻¹
- kon [4]: 395 M⁻¹ s⁻¹
- Kd [5]: 3 nM
- koff [5]: 0.000177 s⁻¹
- kon [5]: 59000 M⁻¹ s⁻¹
B1: rat anti-hmVISTA mAb 7C6 (antibody, part only; not given: light chain, rat IgG2a, V domains shown, part only)
VH: QVQLQQSGAELAKPGSSVKISCKASGYTFTSYYISWIKQTTGQGLEYIGYINTGSGGTNYNEKFKGKATLTVDKSSSTAFMQLSSLTPDDSAVYYCAREGTFYSGDVGYWYFDFWGPGSMVTVSS
